Tests used:
Assay in all cases: BLI (Octet), binder on AHC sensor, 100 nM human antigen, 1:1 fit
human HER3 = target: T1, human HER3 (human, UniProt P21860 20-643)
T1 construct: Soluble antigen in Octet; bought; also called human HER3 (Acro ER3-H5223)

human EGFR = target: T2, human EGFR (human, UniProt P00533 25-645, limits assumed)
T2 construct: Soluble antigen in Octet; construct not described

human CD3 = target: T3, human CD3 (human, UniProt P07766 23-126; P04234 22-105)
T3 construct: also called His-tagged human CD3; human CD3 (Acro CDD-H52W1)

Row | Binder | Kd (human HER3) [nM] | Kd (human EGFR) [nM] | Kd (human CD3) [nM]
1 | SI-75X18 (other, tri-miniGNC; D3 αCD3* (Fab), D4 αEGFR, D5 αHER3) chain 1: QVQLQESGGRLVQPGEPLSLTCKTSGIDLSSNAIGWVRQAPGKGLEWIGVIFGSGNTYYASWAKGRFTISRSTSTVYLKMNSLRSEDTAIYYCARGGYSSDIWGQGTLVTVSSASTKGPSVFPLAPSSKSTSGGTAALGCLVKDYFPEPVTVSWNSGALTSGVHTFPAVLQSSGLYSLSSVVTVPSSSLGTQTYICNVNHKPSNTKVDKRVEPKSCDKTHTCPPCPAPEAAGGPSVFLFPPKPKDTLMISRTPEVTCVVVDVSHEDPEVKFNWYVDGVEVHNAKTKPREEQYNSTYRVVSVLTVLHQDWLNGKEYKCAVSNKALPAPIEKTISKAKGQPREPQVYTLPPSRDELTKNQVSLSCAVKGFYPSDIAVEWESNGQPENNYKTTPPVLDSDGSFFLVSKLTVDKSRWQQGNVFSCSVMHEALHNHYTQKSLSLSPGGGGGSGGGGSQVQLQQSGPGLVKPSETLSITCTVSGFSLTNYGVHWIRQAPGKGLEWLGVIWSGGNTDYNTPFTSRFTITKDNSKNQVYFKLRSVRADDTAIYYCARALTYYDYEFAYWGQGTLVTVSSGGGGSGGGGSGGGGSGGGGSEIVLTQSPSTLSVSPGERATFSCRASQSIGTNIHWYQQKPGKPPRLLIKYASESISGIPDRFSGSGSGTEFTLTISSVQSEDFAVYYCQQNNNWPTTFGPGTKLTVL chain 2: DPQLTQSPSSLSATVGQRVTINCQSSQSVAKNNNLAWFQQKPGKPPKLLIYSASTLAAGVPSRFSGSGSGTQFTLTITRVQSEDFATYYCSARDSGNIQSFGGGTRVEIKRTVAAPSVFIFPPSDEQLKSGTASVVCLLNNFYPREAKVQWKVDNALQSGNSQESVTEQDSKDSTYSLSSTLTLSKADYEKHKVYACEVTHQGLSSPVTKSFNRGECGGDKTHTCPPCPAPEAAGGPSVFLFPPKPKDTLMISRTPEVTCVVVDVSHEDPEVKFNWYVDGVEVHNAKTKPREEQYNSTYRVVSVLTVLHQDWLNGKEYKCAVSNKALPAPIEKTISKAKGQPREPQVYTLPPSRDELTKNQVSLWCLVKGFYPSDIAVEWESNGQPENNYKTTPPVLDSDGSFFLYSKLTVDKSRWQQGNVFSCSVMHEALHNRFTQKSLSLSPGGGGGSGGGGSQVQLQESGGGLVKPGGSLSLSCAASGFTFSSYWMSWVRQAPGKGLEWVANINRDGSASYYVDSVKGRFTISRDDAKNSLYLQMNSLRAEDTAVYYCARDRGVGYFDLWGRGTLVTVSSGGGGSGGGGSGGGGSQSALTQPASVSGSPGQSITISCTGTSSDVGGYNFVSWYQQHPGKAPKLMIYDVSDRPSGVSDRFSGSKSGNTASLIISGLQADDEADYYCSSYGSSSTHVIFGGGTKVTVL | 93.8 | 2.72 | 47.3
2 | SI-75X3 (other, tri-miniGNC; D1 αEGFR, D2 αHER3, D3 αCD3 (Fab); also called tri-miniGNC (SI-75X3)) chain 1: EIVLTQSPSTLSVSPGERATFSCRASQSIGTNIHWYQQKPGKPPRLLIKYASESISGIPDRFSGSGSGTEFTLTISSVQSEDFAVYYCQQNNNWPTTFGPGTKLTVLGGGGSGGGGSGGGGSGGGGSQVQLQQSGPGLVKPSETLSITCTVSGFSLTNYGVHWIRQAPGKGLEWLGVIWSGGNTDYNTPFTSRFTITKDNSKNQVYFKLRSVRADDTAIYYCARALTYYDYEFAYWGQGTLVTVSSGGGGSGGGGSEVQLVESGGGLVQPGGSLRLSCAASGFTISTNAMSWVRQAPGKGLEWIGVITGRDITYYASWAKGRFTISRDNSKNTLYLQMNSLRAEDTAVYYCARDGGSSAITSNNIWGQGTLVTVSSASTKGPSVFPLAPSSKSTSGGTAALGCLVKDYFPEPVTVSWNSGALTSGVHTFPAVLQSSGLYSLSSVVTVPSSSLGTQTYICNVNHKPSNTKVDKRVEPKSCDKTHTCPPCPAPEAAGGPSVFLFPPKPKDTLMISRTPEVTCVVVDVSHEDPEVKFNWYVDGVEVHNAKTKPREEQYNSTYRVVSVLTVLHQDWLNGKEYKCAVSNKALPAPIEKTISKAKGQPREPQVYTLPPSRDELTKNQVSLSCAVKGFYPSDIAVEWESNGQPENNYKTTPPVLDSDGSFFLVSKLTVDKSRWQQGNVFSCSVMHEALHNHYTQKSLSLSPG chain 2: QSALTQPASVSGSPGQSITISCTGTSSDVGGYNFVSWYQQHPGKAPKLMIYDVSDRPSGVSDRFSGSKSGNTASLIISGLQADDEADYYCSSYGSSSTHVIFGGGTKVTVLGGGGSGGGGSGGGGSGGGGSQVQLQESGGGLVKPGGSLSLSCAASGFTFSSYWMSWVRQAPGKGLEWVANINRDGSASYYVDSVKGRFTISRDDAKNSLYLQMNSLRAEDTAVYYCARDRGVGYFDLWGRGTLVTVSSGGGGSGGGGSDVVMTQSPSTLSASVGDRVTINCQASESISSWLAWYQQKPGKAPKLLIYEASKLASGVPSRFSGSGSGTEFTLTISSLQPDDFATYYCQGYFYFISRTYVNSFGGGTKVEIKRTVAAPSVFIFPPSDEQLKSGTASVVCLLNNFYPREAKVQWKVDNALQSGNSQESVTEQDSKDSTYSLSSTLTLSKADYEKHKVYACEVTHQGLSSPVTKSFNRGECGGDKTHTCPPCPAPEAAGGPSVFLFPPKPKDTLMISRTPEVTCVVVDVSHEDPEVKFNWYVDGVEVHNAKTKPREEQYNSTYRVVSVLTVLHQDWLNGKEYKCAVSNKALPAPIEKTISKAKGQPREPQVYTLPPSRDELTKNQVSLWCLVKGFYPSDIAVEWESNGQPENNYKTTPPVLDSDGSFFLYSKLTVDKSRWQQGNVFSCSVMHEALHNRFTQKSLSLSPG | 146 | 8.47 | 18.2
3 | SI-75X16 (other, tri-miniGNC; D1 αEGFR, D2 αHER3, D3 αCD3* (Fab)) chain 1: EIVLTQSPSTLSVSPGERATFSCRASQSIGTNIHWYQQKPGKPPRLLIKYASESISGIPDRFSGSGSGTEFTLTISSVQSEDFAVYYCQQNNNWPTTFGPGTKLTVLGGGGSGGGGSGGGGSGGGGSQVQLQQSGPGLVKPSETLSITCTVSGFSLTNYGVHWIRQAPGKGLEWLGVIWSGGNTDYNTPFTSRFTITKDNSKNQVYFKLRSVRADDTAIYYCARALTYYDYEFAYWGQGTLVTVSSGGGGSGGGGSQVQLQESGGRLVQPGEPLSLTCKTSGIDLSSNAIGWVRQAPGKGLEWIGVIFGSGNTYYASWAKGRFTISRSTSTVYLKMNSLRSEDTAIYYCARGGYSSDIWGQGTLVTVSSASTKGPSVFPLAPSSKSTSGGTAALGCLVKDYFPEPVTVSWNSGALTSGVHTFPAVLQSSGLYSLSSVVTVPSSSLGTQTYICNVNHKPSNTKVDKRVEPKSCDKTHTCPPCPAPEAAGGPSVFLFPPKPKDTLMISRTPEVTCVVVDVSHEDPEVKFNWYVDGVEVHNAKTKPREEQYNSTYRVVSVLTVLHQDWLNGKEYKCAVSNKALPAPIEKTISKAKGQPREPQVYTLPPSRDELTKNQVSLSCAVKGFYPSDIAVEWESNGQPENNYKTTPPVLDSDGSFFLVSKLTVDKSRWQQGNVFSCSVMHEALHNHYTQKSLSLSPG chain 2: QSALTQPASVSGSPGQSITISCTGTSSDVGGYNFVSWYQQHPGKAPKLMIYDVSDRPSGVSDRFSGSKSGNTASLIISGLQADDEADYYCSSYGSSSTHVIFGGGTKVTVLGGGGSGGGGSGGGGSGGGGSQVQLQESGGGLVKPGGSLSLSCAASGFTFSSYWMSWVRQAPGKGLEWVANINRDGSASYYVDSVKGRFTISRDDAKNSLYLQMNSLRAEDTAVYYCARDRGVGYFDLWGRGTLVTVSSGGGGSGGGGSDPQLTQSPSSLSATVGQRVTINCQSSQSVAKNNNLAWFQQKPGKPPKLLIYSASTLAAGVPSRFSGSGSGTQFTLTITRVQSEDFATYYCSARDSGNIQSFGGGTRVEIKRTVAAPSVFIFPPSDEQLKSGTASVVCLLNNFYPREAKVQWKVDNALQSGNSQESVTEQDSKDSTYSLSSTLTLSKADYEKHKVYACEVTHQGLSSPVTKSFNRGECGGDKTHTCPPCPAPEAAGGPSVFLFPPKPKDTLMISRTPEVTCVVVDVSHEDPEVKFNWYVDGVEVHNAKTKPREEQYNSTYRVVSVLTVLHQDWLNGKEYKCAVSNKALPAPIEKTISKAKGQPREPQVYTLPPSRDELTKNQVSLWCLVKGFYPSDIAVEWESNGQPENNYKTTPPVLDSDGSFFLYSKLTVDKSRWQQGNVFSCSVMHEALHNRFTQKSLSLSPG | 113 | 6.8 | 33.4
4 | SI-75X5 (bispecific antibody, human IgG1, kappa, L234A L235A, bi-miniGNC, IgG1; D2 αHER3, D3 αCD3* (Fab); Chain B carries H435R/Y436F (Fc) and R19S (VH of the αHER3 scFv)) chain 1: QVQLQESGGRLVQPGEPLSLTCKTSGIDLSSNAIGWVRQAPGKGLEWIGVIFGSGNTYYASWAKGRFTISRSTSTVYLKMNSLRSEDTAIYYCARGGYSSDIWGQGTLVTVSSASTKGPSVFPLAPSSKSTSGGTAALGCLVKDYFPEPVTVSWNSGALTSGVHTFPAVLQSSGLYSLSSVVTVPSSSLGTQTYICNVNHKPSNTKVDKRVEPKSCDKTHTCPPCPAPEAAGGPSVFLFPPKPKDTLMISRTPEVTCVVVDVSHEDPEVKFNWYVDGVEVHNAKTKPREEQYNSTYRVVSVLTVLHQDWLNGKEYKCAVSNKALPAPIEKTISKAKGQPREPQVYTLPPSRDELTKNQVSLSCAVKGFYPSDIAVEWESNGQPENNYKTTPPVLDSDGSFFLVSKLTVDKSRWQQGNVFSCSVMHEALHNHYTQKSLSLSPG chain 2: QSALTQPASVSGSPGQSITISCTGTSSDVGGYNFVSWYQQHPGKAPKLMIYDVSDRPSGVSDRFSGSKSGNTASLIISGLQADDEADYYCSSYGSSSTHVIFGGGTKVTVLGGGGSGGGGSGGGGSGGGGSQVQLQESGGGLVKPGGSLSLSCAASGFTFSSYWMSWVRQAPGKGLEWVANINRDGSASYYVDSVKGRFTISRDDAKNSLYLQMNSLRAEDTAVYYCARDRGVGYFDLWGRGTLVTVSSGGGGSGGGGSDPQLTQSPSSLSATVGQRVTINCQSSQSVAKNNNLAWFQQKPGKPPKLLIYSASTLAAGVPSRFSGSGSGTQFTLTITRVQSEDFATYYCSARDSGNIQSFGGGTRVEIKRTVAAPSVFIFPPSDEQLKSGTASVVCLLNNFYPREAKVQWKVDNALQSGNSQESVTEQDSKDSTYSLSSTLTLSKADYEKHKVYACEVTHQGLSSPVTKSFNRGECGGDKTHTCPPCPAPEAAGGPSVFLFPPKPKDTLMISRTPEVTCVVVDVSHEDPEVKFNWYVDGVEVHNAKTKPREEQYNSTYRVVSVLTVLHQDWLNGKEYKCAVSNKALPAPIEKTISKAKGQPREPQVYTLPPSRDELTKNQVSLWCLVKGFYPSDIAVEWESNGQPENNYKTTPPVLDSDGSFFLYSKLTVDKSRWQQGNVFSCSVMHEALHNRFTQKSLSLSPG | 139 |  | 44.4

Source: patent US20230114801A1 (SYSTIMMUNE, published 2023)
